# B1: nanobody 11F05 (VHH)
# VHH: EVQLVESGGGSVQAGGSLRLSCAASGRYRMGWFRQAPGKEREFVAVISASGGSTYYADSVKGRFTIARDNAKTMVYLQMNSLKPEDTAVYYCAAKVNYYGDYDLAQNYDYWGQGTQVTVSS
# notes: From a llama immunised with rhRON; found by conventional screening and by NGS; source: E. coli, crude periplasmic extract; E. coli, purified; not shown: FLAG3, C-terminal, kept
# B2: nanobody 2C06 (VHH)
# VHH: EVQLVESGGGLVQTGGSLRLSCARSGPTFSDYAMAWFRQARGKEREFVASITWIGGSTYYADSVKGRFTISRDSAKDTMYLQMNTLKPEDTADYYCAIARLGTYYGSYIRAYFNRGRYEYWGQGTQVTVSS
# notes: as for B1
# B3: nanobody 5C06 (VHH)
# VHH: EVQLVESGGGLVQPGGSLRLSCAASGFTLDYYAIGWFRQAPGKEREGVSCISSSDGSTYYADSVKGRFTISRDNAKNTVYLQMNSLKPEDTAVYYCATDLKRRCRDYARPQRGNDYWGQGTQVTVSS
# notes: as for B1
# B4: nanobody 8A12 (VHH)
# VHH: EVQLVESGGGLVQAGGSLRVSCAASGLTFSRYNMGWFRQAPGKERDFVAAISSSDGSILYENSVKGRFTISRDNAENTVYLQMNSLEPEDTGVYYCAGSIVMSTLARKYDYWGQGTLVTVSS
# notes: as for B1
# B5: nanobody 8F09 (VHH)
# VHH: EVQLVESGGGLVQAGGSLRLSCEASGRYVMGWFRQAPGKEREFVAVISRSGGSTNYADSVKGRFSVSRDSAKNTVYLQMNDLKPEDTAVYYCAASNRYGTNVLVTTALYDYWGQGTQVTVSS
# notes: as for B1
# B6: nanobody NGS00003 (VHH)
# VHH: EVQLVESGGGLVQPGGSLRLSCAASGFAFSRYWMYWVRQAPGKGLEWVSAISSSGSSTDYVDSVKGRFTVSRDNAKNTLYLQMNGLKSEDTAIYYCAKDTRQFIRSNYDNGGQGTLVTVSS
# notes: majority-rule consensus of an NGS cluster; One of the 28 randomly selected NGS clusters; source: E. coli, crude periplasmic extract (synthetic DNA); not shown: FLAG3, C-terminal, kept
# B7: nanobody NGS00027 (VHH)
# VHH: EVQLVESGGGLVQVGASLRLSCRASGGTFDDYAMGWFRQRPGEEREFVAVISWNGAMTYYLNHIKGRFTISRDNAKNTAYLQMNNLEPGDTAVYYCAAERTLGWGVNPEAYASWGQGTLVTVSS
# notes: as for B6
# B8: nanobody NGS00020 (VHH)
# VHH: EVQLVESGGALVQAGDSLRVSCVASGRTFSRYAMGWFRQAPGKQREFVAAISWDGDSTSYANSLKGRFTISRDNAKNTGYLYMNSLIPEDTAVYYCAADRGRTTAWTYWGEGTLVTVSS
# notes: as for B6
# B9: nanobody NGS00009 (VHH)
# VHH: EVQLVESGGGLVQAGDSLRLSCAASGRTFSTYALGWFRQAPGKEREFVAVISGRGGTTYYAGSVKGRLTISRDNAKNTVYLQMNSLKPEDTAVYYCAAGSDFGAVVDNRPDYWGQGTLVTVSS
# notes: as for B6
# Target: T1, RON endogenously expressed on T-47D human breast cancer cells (Homo sapiens (T-47D cell line), UniProt Q04912)
# T1 sequence (Q04912 25-1400): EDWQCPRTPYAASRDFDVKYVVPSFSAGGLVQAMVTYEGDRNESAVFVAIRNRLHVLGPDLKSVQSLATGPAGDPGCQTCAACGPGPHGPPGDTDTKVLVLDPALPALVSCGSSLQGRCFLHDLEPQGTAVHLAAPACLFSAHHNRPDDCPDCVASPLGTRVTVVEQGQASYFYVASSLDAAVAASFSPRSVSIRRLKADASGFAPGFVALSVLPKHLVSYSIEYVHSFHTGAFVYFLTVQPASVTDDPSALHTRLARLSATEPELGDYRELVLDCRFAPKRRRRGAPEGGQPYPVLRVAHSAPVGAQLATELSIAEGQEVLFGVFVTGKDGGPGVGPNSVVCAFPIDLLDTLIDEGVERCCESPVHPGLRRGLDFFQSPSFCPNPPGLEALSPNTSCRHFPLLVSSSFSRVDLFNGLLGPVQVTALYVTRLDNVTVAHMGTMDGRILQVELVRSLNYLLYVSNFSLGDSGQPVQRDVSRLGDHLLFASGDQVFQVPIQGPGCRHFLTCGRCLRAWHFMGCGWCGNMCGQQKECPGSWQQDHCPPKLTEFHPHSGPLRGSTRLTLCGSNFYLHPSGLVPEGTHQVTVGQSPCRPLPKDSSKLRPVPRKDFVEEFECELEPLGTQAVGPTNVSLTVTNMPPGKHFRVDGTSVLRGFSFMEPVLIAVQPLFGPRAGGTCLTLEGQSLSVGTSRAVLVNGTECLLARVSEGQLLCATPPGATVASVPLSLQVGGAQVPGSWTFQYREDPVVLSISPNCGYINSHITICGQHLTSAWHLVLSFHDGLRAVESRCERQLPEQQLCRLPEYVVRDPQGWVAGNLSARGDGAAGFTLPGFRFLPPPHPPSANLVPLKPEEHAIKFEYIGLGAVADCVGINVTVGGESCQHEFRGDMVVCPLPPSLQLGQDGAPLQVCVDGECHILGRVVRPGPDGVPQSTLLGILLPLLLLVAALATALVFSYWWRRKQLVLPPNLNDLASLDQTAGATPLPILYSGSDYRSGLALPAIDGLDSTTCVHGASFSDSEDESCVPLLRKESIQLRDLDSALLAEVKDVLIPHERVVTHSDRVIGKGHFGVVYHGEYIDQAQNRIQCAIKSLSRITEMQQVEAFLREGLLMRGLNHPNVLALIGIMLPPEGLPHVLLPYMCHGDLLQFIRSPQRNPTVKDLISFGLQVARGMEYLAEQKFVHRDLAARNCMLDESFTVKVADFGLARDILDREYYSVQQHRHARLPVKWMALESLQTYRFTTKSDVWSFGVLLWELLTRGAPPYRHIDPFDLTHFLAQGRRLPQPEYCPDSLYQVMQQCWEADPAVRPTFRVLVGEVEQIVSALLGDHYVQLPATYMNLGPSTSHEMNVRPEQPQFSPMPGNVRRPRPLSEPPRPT
# Assay: cell-based or functional assay
# Conditions: not given
Binder,"IC50 (M) inhibition of ERK phosphorylation induced by 1 nM MSP through RON on T-47D cells; purified nanobody, HTRF phospho-ERK",maximum inhibition (efficacy) of MSP-induced ERK phosphorylation in T-47D cells
B1,6e-09 M,100%
B2,3e-07 M,92%
B3,1.2e-07 M,98%
B4,1.3e-08 M,100%
B5,5.2e-09 M,99%

# Target: T2, Recombinant extracellular domain of human RON (rhRON) (human, UniProt Q04912)
# T2 construct: recepteur d'origine nantais (RON) receptor tyrosine kinase, human, recombinant extracellular domain; also called recepteur d'origine nantais; source: bought: R&D Systems
# T2 sequence (Q04912 25-957): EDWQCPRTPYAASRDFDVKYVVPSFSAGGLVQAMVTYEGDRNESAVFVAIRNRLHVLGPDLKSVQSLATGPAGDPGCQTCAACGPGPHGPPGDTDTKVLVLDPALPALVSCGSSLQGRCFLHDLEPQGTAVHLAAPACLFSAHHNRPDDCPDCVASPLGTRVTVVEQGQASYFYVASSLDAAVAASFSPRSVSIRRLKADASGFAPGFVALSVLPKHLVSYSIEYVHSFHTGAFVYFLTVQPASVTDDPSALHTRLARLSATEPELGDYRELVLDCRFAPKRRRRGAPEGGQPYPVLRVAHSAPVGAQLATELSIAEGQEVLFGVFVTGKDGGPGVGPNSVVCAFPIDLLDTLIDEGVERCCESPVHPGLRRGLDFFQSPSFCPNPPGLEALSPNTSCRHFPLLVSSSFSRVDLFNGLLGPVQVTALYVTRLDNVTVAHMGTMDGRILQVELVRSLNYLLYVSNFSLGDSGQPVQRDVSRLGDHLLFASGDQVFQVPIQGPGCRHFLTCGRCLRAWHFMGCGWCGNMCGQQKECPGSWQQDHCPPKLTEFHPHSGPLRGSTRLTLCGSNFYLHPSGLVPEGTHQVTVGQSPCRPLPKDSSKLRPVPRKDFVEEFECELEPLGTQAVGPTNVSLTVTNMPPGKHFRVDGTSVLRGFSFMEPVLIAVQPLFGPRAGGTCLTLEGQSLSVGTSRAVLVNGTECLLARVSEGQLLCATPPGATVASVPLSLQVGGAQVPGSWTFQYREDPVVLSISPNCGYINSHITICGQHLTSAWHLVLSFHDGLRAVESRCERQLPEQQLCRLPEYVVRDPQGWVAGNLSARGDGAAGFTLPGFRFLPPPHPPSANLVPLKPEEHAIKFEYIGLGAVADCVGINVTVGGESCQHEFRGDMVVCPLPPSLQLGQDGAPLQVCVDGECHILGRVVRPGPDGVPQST
# Assay: SPR; ProteOn; rhRON immobilised on GLC chip; 1/10 diluted crude periplasmic extracts injected 2 min at 45 µl/min; Langmuir model, off-rate only
# Conditions: one partner purified
row,Binder,koff
1,B1,0.00046 s⁻¹
2,B2,0.0069 s⁻¹
3,B3,0.0037 s⁻¹
4,B4,0.0028 s⁻¹
5,B5,0.00064 s⁻¹

# Target: T1, RON endogenously expressed on T-47D …
# Assay: flow cytometry on cells; dilution series of purified nanobodies starting at 500 nM on T-47D cells endogenously expressing RON; anti-FLAG then anti-mouse APC
# Conditions: one partner purified
row,Binder,EC50
1,B1,0.053 nM
2,B2,> 1000 nM
3,B3,200 nM
4,B4,0.12 nM
5,B5,0.2 nM

# Target: T3, full-length human RON expressed on HEK293T cells (HEK293T-hRON) (Homo sapiens, UniProt Q04912)
# T3 construct: also called cell-expressed RON; source: HEK293T, transiently transfected (pcDNA3.1), on cells
# T3 sequence (Q04912 25-1400): as the sequence (Q04912 25-1400) above
# Assay: flow cytometry on cells; 1/10 diluted crude periplasmic extracts on HEK293T-hRON and HEK293T cells; anti-FLAG then anti-mouse APC; positive if normalised ratio ≥2
# Conditions: partners not purified
row,Binder,binding result
1,B6,no binding
2,B7,no binding
3,B8,no binding

# Target: T2, Recombinant extracellular domain of …
# Assay: ELISA; rhRON (1 µg/ml) immobilised directly on 384-well plates; crude periplasmic extracts of nanobodies; detection by anti-FLAG HRP; positive if OD450 ratio to a negative control nanobody ≥2
# Conditions: one partner purified
row,Binder,binding result
1,B6,no binding
2,B9,binds
3,B7,no binding
4,B8,no binding

# Target: T2, Recombinant extracellular domain of …
# Assay: ELISA; ligand competition: rhRON (1 µg/ml) immobilised directly; dilution series of purified nanobodies starting at 1 µM added together with 2 nM biotinylated MSP; MSP detected by extravidin peroxidase
# Conditions: both partners purified
Binder,IC50,maximum inhibition of MSP binding
B1,9.7 nM,98%
B2,250 nM,90%
B3,22 nM,98%
B4,7 nM,96%
B5,12 nM,98%

# Source: PMC5385344, “Large Diversity of Functional Nanobodies from a Camelid Immune Library Revealed by an Alternative Analysis of Next-Generation Sequencing Data” (Frontiers in Immunology, 2017)
